One may read the Kd as the concentration at which binding is half-saturated. High values mean weaker binding, low ones tighter binding. As a reminder, the koff is the rate constant with which the complex falls apart. Read a low koff as slow dissociation. Usually kon stands for a measure of how fast the partners come together.

Assay [1] concerns the target murine BACE1 ECD (amino acids 1-457) (murine) (UniProt P56818). As to the kind of experiment: SPR (BIAcore-3000), second unlabelled row under Mouse, IgG captured by anti-human Fc antibody, pH 7.0. (In general: Surface plasmon resonance follows binding to a sensor surface in real time, without labels.)
Assay [2] has the same target. The assay can be described thus: SPR (BIAcore-3000), IgG captured by anti-human Fc antibody, BACE1 ECD injected, 25 C, pH 7.0.

Chain of murine BACE1 ECD (amino acids 1-457) (murine) (P56818 22-457 limits assumed, form in doubt): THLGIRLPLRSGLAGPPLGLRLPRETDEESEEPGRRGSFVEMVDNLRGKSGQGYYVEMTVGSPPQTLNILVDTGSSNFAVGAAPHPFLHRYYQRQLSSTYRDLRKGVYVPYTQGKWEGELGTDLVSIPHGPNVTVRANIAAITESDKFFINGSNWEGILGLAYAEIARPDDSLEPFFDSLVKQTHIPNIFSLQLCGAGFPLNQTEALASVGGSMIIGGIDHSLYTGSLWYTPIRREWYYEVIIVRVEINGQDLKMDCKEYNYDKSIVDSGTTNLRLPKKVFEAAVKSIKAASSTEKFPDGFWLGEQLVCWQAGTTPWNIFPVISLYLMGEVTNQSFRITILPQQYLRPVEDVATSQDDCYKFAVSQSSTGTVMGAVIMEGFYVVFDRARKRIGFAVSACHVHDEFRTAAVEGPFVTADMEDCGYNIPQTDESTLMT

B1: YW412.8.31 anti-BACE1 human IgG (antibody, V domains shown)
VH: EVQLVESGGGLVQPGGSLRLSCAASGFTFLGYGIHWVRQAPGKGLEWVGWISPAGGSTDYADSVKGRFTISADTSKNTAYLQMNSLRAEDTAVYYCARGPFSPWVMDYWGQGTLVTVSS
VL: DIQMTQSPSSLSASVGDRVTITCRASQDVSTAVAWYQQKPGKAPKLLIYSASFLYSGVPSRFSGSGSGTDFTLTISSLQPEDFATYYCQQFPTYLPTFGQGTKVEIK
Take B1: in assay [1], the Kd was found to be 1.4 nM, the koff turned out to be 0.000141 s⁻¹ and the kon stood at 101000 M⁻¹ s⁻¹. In assay [2], the dissociation constant Kd was determined as 2.1 nM, the koff worked out at 0.00029 s⁻¹ and the kon amounted to 140000 M⁻¹ s⁻¹.
